Results on one molecule are retold here after patent publication US20120034672A1, “[…] LUCIFERASE VARIANT WITH PROLONGED BIOLUMINESCENCE” (priority 2009, published 2012).

This assay deals with stress hormone receptor (glucocorticoid receptor). The experiment in a line: Single-molecule-format bioluminescent probe response to stress hormone. Type of assay: cell-based. The following applies: with/without stress hormone. The method, then: In order to further examine the advantages of the highly-luminescent variants of the present invention, a single-molecule-format bioluminescent probe was synthesized based on this variant (FIG. 13). […] These probes were inserted into living cells, and the difference in the luminescence intensity was measured under conditions of presence and absence of […].
First, a stress hormone receptor recognizes the stress hormone, and causes an alteration in the structure. As a result, the receptor binds to the adjacent LXXLL motif, which thereby causes recombination of the fragments of the dissected luciferase. At this time, the activity of the stress hormone can be measured using the reversed enzyme activity as the index.
The sensitivity of SimGR3, 8990N, and Mon3N prepared for this experiment to the stress hormone was measured (FIG. 13B).

B1: SimGR3: control probe: original GLuc dissected into two fragments with GR LBD and LXXLL motif inserted (protein)
chain: MKPTENNEDFNIVAVASNFATTDLDADRGKLPGKKLPLEVLKEMEANARKAGCTRGCLICLSHIKCTPKMKKFIPGRCHTYEGDKESAQGGGGGTQLTPTLVSLLEVIEPEVLYAGYDSSVPDSTWRIMTTLNMLGGRQVIAAVKWAKAIPGFRNLHLDDQMTLLQYSWMFLMAFALGWRSYRQSSANLLCFAPDLIINEQRMTLPCMYDQCKHMLYVSSELHRLQVSYEEYLCMKTLLLLSSVPKDGLKSQELFDEIRMTYIKELGKAIVKREGNSSQNWQRFYQLTKLLDSMHEVVENLLNYCFQTFLDKTMSIEFPEMLAEIITNQIPKYSNGNIKKLLFHQKVDGGNGGRNALLRYLLDKDGSGGGGIGEAIVDIPEIPGFKDLEPMEQFIAQVDLCVDCTTGCLKGLANVQCSDLLKKWLPQRCATFASKIQGQVDKIKGAGGDKDEL
modifications: SimGR3; an integrated molecule-format probe carrying an LXXLL motif and GLuc.
notes: control probe: original GLuc dissected into two fragments with GR LBD and LXXLL motif inserted
As for B1, the “luminescence and stress hormone sensitivity with 610 nm long-pass filter” value was “not significant enough to distinguish between the presence and absence of stress hormone”.
